For one molecule, stoichiometry N results are on record in doi:10.1101/2020.01.21.913814.

Usually stoichiometry N stands for a count of units in the complex or per binding partner.

The target of this assay is T1, His-tagged Arabidopsis thaliana full-length UVR8 (UV … LOCUS 8) (Arabidopsis thaliana), Q9FN03.
T1 chain: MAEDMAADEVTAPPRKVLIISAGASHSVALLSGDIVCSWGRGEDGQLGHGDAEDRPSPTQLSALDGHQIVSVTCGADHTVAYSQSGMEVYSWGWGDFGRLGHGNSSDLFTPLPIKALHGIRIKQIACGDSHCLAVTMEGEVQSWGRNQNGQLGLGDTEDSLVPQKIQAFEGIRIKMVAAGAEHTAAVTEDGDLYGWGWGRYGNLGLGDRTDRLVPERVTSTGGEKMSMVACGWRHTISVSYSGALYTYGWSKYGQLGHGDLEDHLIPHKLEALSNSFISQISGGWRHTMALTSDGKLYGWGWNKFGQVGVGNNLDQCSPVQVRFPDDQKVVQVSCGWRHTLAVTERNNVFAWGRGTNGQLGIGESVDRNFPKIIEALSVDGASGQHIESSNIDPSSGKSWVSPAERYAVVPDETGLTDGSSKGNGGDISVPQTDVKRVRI
Description: SDS-PAGE without boiling. To be noted: remark: other sources report otherwise.

B1: His-tagged Arabidopsis thaliana full-length UVR8 (UV … LOCUS 8), Q9FN03 1-440 (natural protein)
chain: MAEDMAADEVTAPPRKVLIISAGASHSVALLSGDIVCSWGRGEDGQLGHGDAEDRPSPTQLSALDGHQIVSVTCGADHTVAYSQSGMEVYSWGWGDFGRLGHGNSSDLFTPLPIKALHGIRIKQIACGDSHCLAVTMEGEVQSWGRNQNGQLGLGDTEDSLVPQKIQAFEGIRIKMVAAGAEHTAAVTEDGDLYGWGWGRYGNLGLGDRTDRLVPERVTSTGGEKMSMVACGWRHTISVSYSGALYTYGWSKYGQLGHGDLEDHLIPHKLEALSNSFISQISGGWRHTMALTSDGKLYGWGWNKFGQVGVGNNLDQCSPVQVRFPDDQKVVQVSCGWRHTLAVTERNNVFAWGRGTNGQLGIGESVDRNFPKIIEALSVDGASGQHIESSNIDPSSGKSWVSPAERYAVVPDETGLTDGSSKGNGGDISVPQTDVKRVRI
In the case of B1, the stoichiometry N was determined as 2.
